Reference: FireProtDB (doi:10.1046/j.1432-1327.1999.00491.x)
Values joined by “and” are separate entries in the source; they are usually repeats but may differ in a detail not shown here. Equal entries are not always repeated.

Conditions: Enterobacteria phage 434, Thermal, DSC, reversible: yes, whole UniProt chain shown; for unfolding free energy: 25 °C
[1] = pH 2, glycine 20 mM, NaCl 200 mM
[2] = pH 3, glycine 20 mM, NaCl 200 mM
[3] = pH 4, Sodium acetate 20 mM, NaCl 200 mM
[4] = pH 4.5, Sodium acetate 20 mM, NaCl 200 mM

B1: Regulatory protein cro wild type, P03036 (protein)
chain: MQTLSERLKKRRIALKMTQTELATKAGVKQQSIQLIEAGVTKRPRFLFEIAMALNCDPVWLQYGTKRGKAA
unfolding free energy [1]: 1.17 kcal/mol
unfolding free energy (pH 2, glycine 20 mM): 0.22 kcal/mol
Tm [1]: 38.3 °C and 39.4 °C and 35.6 °C
unfolding enthalpy (calorimetric) [1]: 33.5 kcal/mol and 33.9 kcal/mol and 34.2 kcal/mol
unfolding enthalpy (calorimetric) (pH 2, glycine 20 mM): 24.1 kcal/mol and 27.5 kcal/mol and 22.2 kcal/mol
unfolding free energy [2]: 2.27 kcal/mol
unfolding free energy (pH 3, glycine 20 mM): 2.58 kcal/mol
unfolding enthalpy (calorimetric) [2]: 42.1 kcal/mol and 40.4 kcal/mol and 39 kcal/mol
unfolding enthalpy (calorimetric) (pH 3, glycine 20 mM): 34.4 kcal/mol and 32 kcal/mol
unfolding free energy [3]: 3.78 kcal/mol
unfolding free energy (pH 4, Sodium acetate 20 mM): 3.59 kcal/mol
Tm [3]: 59.8 °C and 57.8 °C and 57.2 °C
unfolding enthalpy (calorimetric) [3]: 51.1 kcal/mol and 50 kcal/mol and 49.7 kcal/mol
Tm (pH 4, Sodium acetate 20 mM): 58.2 °C and 53.6 °C
unfolding enthalpy (calorimetric) (pH 4, Sodium acetate 20 mM): 50 kcal/mol and 45.6 kcal/mol and 44.2 kcal/mol
unfolding free energy [4]: 4.33 kcal/mol
unfolding free energy (pH 4.5, Sodium acetate 20 mM): 4.4 kcal/mol
Tm [4]: 63.7 °C and 63.5 °C and 60.2 °C
unfolding enthalpy (calorimetric) [4]: 54 kcal/mol and 54.7 kcal/mol and 52.1 kcal/mol
unfolding enthalpy (calorimetric) (pH 4.5, Sodium acetate 20 mM): 53.1 kcal/mol and 46.4 kcal/mol
unfolding free energy (pH 7, PIPES 20 mM, NaCl 200 mM): 5.33 kcal/mol
unfolding free energy (pH 7, PIPES 20 mM): 5.35 kcal/mol
Tm (pH 7, PIPES 20 mM, NaCl 200 mM): 70.7 °C and 66.6 °C and 67.6 °C
unfolding enthalpy (calorimetric) (pH 7, PIPES 20 mM, NaCl 200 mM): 58.6 kcal/mol and 57.6 kcal/mol and 58.1 kcal/mol
Tm (pH 7, PIPES 20 mM): 70.7 °C and 67.2 °C
unfolding enthalpy (calorimetric) (pH 7, PIPES 20 mM): 59 kcal/mol and 54 kcal/mol
